Test results reported in patent publication US20130267025A1.

Columns and labels:
[1] = biological target: endogenous Tctex-1 protein of PC3 human prostate cancer cells (human) (UniProt P63172); assay: cell-based or functional assay
[2] = biological target: V5-tagged Tctex-1 (V5-Tctex-1 fusion protein), expressed from pcDNA3.2/V5/GW/D-TOPO (human) (UniProt P63172); assay: cell-based or functional assay
V5-tagged Tctex-1 (V5-Tctex-1 fusion protein), expressed from pcDNA3.2/V5/GW/D-TOPO (human), sequence (P63172 whole entry, the tested form may be a part): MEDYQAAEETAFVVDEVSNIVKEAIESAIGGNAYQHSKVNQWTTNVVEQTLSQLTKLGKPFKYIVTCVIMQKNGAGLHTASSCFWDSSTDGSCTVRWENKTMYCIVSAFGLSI

endogenous Tctex-1 protein of PC3 human prostate cancer cells (human), sequence (P63172 whole entry, the tested form may be a part): as above

Substance: REIC/Dkk-3 protein overexpressed from adenovirus REIC/Dkk-3 (Ad-REIC) in PC3 cells (from UniProt Q9UBP4 22-350)
- apoptosis incidence (Hoechst 33342) in PC3 cells treated with Ad-REIC, group treated with shRNA-Tctex-1 [1]: 15%
- apoptosis incidence (Hoechst 33342) in PC3 cells treated with Ad-REIC, group treated with the GFP plasmid [1]: 30%
- apoptosis incidence (Hoechst 33342) in PC3 cells treated with Ad-REIC, group treated with the Tctex-1 expression plasmid [2]: 75%
